Experimental findings from patent US20240101668A1 (WUGEN, published 2024) are described below.

Where a chain is given by its changes, count along the chain named.

Sequences and labels used below:
B1: Polypeptide No. 18 (scFv, V domains shown)
VH: QVQLVQSGAEVKKPGASVKVSCKASGYTFTDHYMHWVRQAPGQGLEWMGWINPNSGGTNYAQKFQGRVTMTRDTSTSTVYMELSSLRSEDTAVYYCAKDKFGDEGSGWYGDFQHWGQGTLVTVSS
VL: not shown
notes: scFv
B2: Polypeptide No. 9 (scFv, V domains shown)
VH: QVQLVQSGAEVKKPGSSVKVSCKASGGTFSSDAINWVRQAPGQGLEWMGGFDPEDGETIYAQKFQGRVTITADESTSTAYMELSSLRSEDTAVYYCARGPSGYDFEFDYWGQGTLVTVSS
VL: DIQMTQSPSSLSASVGDRVTITCRSSRNISHWLAWYQQKPGKAPKLLIYKASSLESGVPSRFSGSGSGTDFTLTISSLQPEDFATYYCQQAISFPLTFGGGTKVEIKR
notes: scFv
B3: Polypeptide No. 5 (scFv, V domains shown)
VH: QVQLVQSGAEVKKPGASVKVSCKASGNTFTSYGISWVRQAPGQGLEWMGWINPNSGGTKYAQKFQGRVTMTRDTSTSTVYMELSSLRSEDTAVYYCARESWFGELYYGMDVWGKGTTVTVSS
VL: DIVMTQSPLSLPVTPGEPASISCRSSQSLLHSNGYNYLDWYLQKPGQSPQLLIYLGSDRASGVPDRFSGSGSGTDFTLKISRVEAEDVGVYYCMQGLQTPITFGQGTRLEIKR
notes: scFv
B4: Polypeptide No. 15 (scFv, V domains shown)
VH: EVQLLESGGGLVQPGGSLRLSCAASGFTFSIYEIHWVRQAPGKGLEWVSAISGSGGSTYYADSVKGRFTISRDNSKNTLYLQMNSLRAEDTAVYYCARSYCGGDCWDYYYYYGMDVWGQGTTVTVSS
VL: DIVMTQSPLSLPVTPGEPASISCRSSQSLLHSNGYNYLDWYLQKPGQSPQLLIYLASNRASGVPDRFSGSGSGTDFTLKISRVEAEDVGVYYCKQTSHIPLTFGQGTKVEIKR
notes: scFv
B5: Polypeptide No. 7 (scFv, V domains shown)
VH: QVQLVQSGAEVKKPGASVKVSCKASGYTFTDYYMHWVRQAPGQGLEWMGWINPNSGGTNYAQKFQGRVTMTRDTSTSTVYMELSSLRSEDTAVYYCARDSRIAVAASSFDYWGQGTLVTVSS
VL: DIQMTQSPSSLSASVGDRVTITCRASRGINNWLTWYQQKPGKAPKLLIYGASSLQSGVPSRFSGSGSGTDFTLTISSLQPEDFATYYCQQSYRIPYTFGQGTKLEIKR
notes: scFv
B6: Polypeptide No. 22 (scFv, V domains shown)
VH: B5 VH with M34I, K63E, S100H, A106G, S108Y
VL: B5 VL with G28S, N30R, N31T, T34A, G50A, S56T, R93S, I94T
notes: scFv
B7: Polypeptide No. 13 (scFv, V domains shown)
VH: QVQLVQSGAEVKKPGASVKVSCKASGYSFTGYYMHWVRQAPGQGLEWMGWINPNSGGTYFAQNFQGRVTMTRDTSTSTVYMELSSLRSEDTAVYYCVKDRGDRVVTSYLDYWGQGTLVTVSS
VL: B5 VL with R27Q, N30R, T34A, G50A, I94T
notes: scFv
B8: Polypeptide No. 14 (scFv, V domains shown)
VH: QVQLVQSGAEVKKPGASVKVSCKASGYTFTGYYMHWVRQAPGQGLEWMGIINPSGGSTSYAQKFQGRVTMTRDTSTSTVYMELSSLRSEDTAVYYCARAAPYYYDSSGYYSGGYYFDYWGQGTLVTVSS
VL: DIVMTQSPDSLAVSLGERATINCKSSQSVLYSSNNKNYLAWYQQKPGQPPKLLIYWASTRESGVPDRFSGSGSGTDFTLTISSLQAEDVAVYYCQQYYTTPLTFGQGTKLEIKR
notes: scFv
B9: Polypeptide No. 12 (scFv, V domains shown)
VH: EVQLLESGGGLVQPGGSLRLSCAASGFTFSSHWMSWVRQAPGKGLEWVSAISGSGGSTYYADSVKGRFTISRDNSKNTLYLQMNSLRAEDTAVYYCARDDNSGSQADWGQGTLVTVSS
VL: DIQMTQSPSSLSASVGDRVTITCQASQDIDNYLNWYQQKPGKAPKLLIYDASNLETGVPSRFSGSGSGTDFTLTISSLQPEDFATYYCQQSYSTPLTFGGGTKLEIKR
notes: scFv
B10: Polypeptide No. 21 (scFv, V domains shown)
VH: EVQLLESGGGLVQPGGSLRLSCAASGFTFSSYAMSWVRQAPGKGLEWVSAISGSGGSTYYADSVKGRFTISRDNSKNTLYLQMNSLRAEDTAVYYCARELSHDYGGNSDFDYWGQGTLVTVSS
VL: B9 VL with D30S, Y32N, D50A, N53G, E55Q, T56S, S91A, Y92N, T94F, L104V
notes: scFv
B11: Polypeptide No. 23 (scFv, V domains shown)
VH: QVQLVQSGAEVKKPGASVKVSCKASGYPFTAHYIHWVRQAPGQGLEWMGWINPNSGGTNYAQKFQGRVTMTRDTSTSTVYMELSSLRSEDTAVYYCARDVEMATIGAYWYFDLWGRGTLVTVSS
VL: B9 VL with Q24R, D28G, D30N, Y32W, N34A, S91A, Y92N, T94F, L96P, G100Q
notes: scFv
B12: Polypeptide No. 19 (scFv, V domains shown)
VH: EVQLLESGGGLVQPGGSLRLSCAASGFTFSSYWMHWVRQAPGKGLEWVSGFSGSARTYYADSVKGRFTISRDNSKNTLYLQMNSLRAEDTAVYYCAREWSGFDYWGQGTLVTVSS
VL: DIQMTQSPSSLSASVGDRVTITCRASQNIGPWLAWYQQKPGKAPKLLIYDAKDLHPGVPSRFSGSGSGTDFTLTISSLQPEDFATYYCQQANTFPMTFGQGTRLEIKR
notes: scFv
B13: Polypeptide No. 10 (scFv, V domains shown)
VH: QVQLVQSGAEVKKPGASVKVSCKASGDTFTTYAISWVRQAPGQGLEWMGWINPNSGVATYANKFQGRVTMTRDTSTSTVYMELSSLRSEDTAVYYCAREGIVGATDAFDIWGQGTMVTVSS
VL: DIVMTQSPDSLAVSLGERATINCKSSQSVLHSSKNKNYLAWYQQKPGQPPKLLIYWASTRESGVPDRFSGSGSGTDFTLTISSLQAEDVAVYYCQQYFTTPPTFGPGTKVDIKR
notes: scFv
B14: Polypeptide No. 16 (scFv, V domains shown)
VH: EVQLVESGGGLVKPGGSLRLSCAASGFTFSDNSMNWVRQAPGKGLEWVSYISSSGSTIYYADSVKGRFTISRDDSKNTLYLQMNSLKTEDTAVYYCARGRASSWPNWFDPWGQGTLVTVSS
VL: DIVMTQSPLSLPVTPGEPASISCRSSQSLLHSNGYNYLDWYLQKPGQSPQLLIYSASNLQSGVPDRFSGSGSGTDFTLKISRVEAEDVGVYYCMQALQTPPTFGQGTKLEIKR
notes: scFv
B15: Polypeptide No. 8 (scFv, V domains shown)
VH: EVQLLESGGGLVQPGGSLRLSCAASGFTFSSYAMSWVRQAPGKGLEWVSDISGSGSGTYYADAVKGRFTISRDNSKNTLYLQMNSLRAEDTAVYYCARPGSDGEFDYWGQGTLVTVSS
VL: DIQMTQSPSSLSASVGDRVTITCRASQSVSSFLNWYQQKPGKAPKLLIYAASSLQSGVPSRFSGSGSGTDFTLTISSLQPEDFATYYCQQSYTTPLTFGQGTKVEIKR
notes: scFv
B16: Polypeptide No. 11 (scFv, V domains shown)
VH: QVQLVQSGAEVKKPGASVKVSCKASGDTFTNHYMHWVRQAPGQGLEWMGWINPNSGGTNYAQKFQGRVTMTRDTSTSTVYMELSSLRSEDTAVYYCARDLVPAAVGGYFDYWGQGTLVTVSS
VL: B15 VL with V29L, S30G, F32W, N34A, S91A, Y92N, T93S, T94F
notes: scFv
B17: Polypeptide No. 6 (scFv, V domains shown)
VH: QVQLVQSGAEVKKPGASVKVSCKASGYTFTAYYTHWVRQAPGQGLEWMGWMNPNSGHTSYAQKFQGRVTMTRDTSTSTVYMELSSLRSEDTAVYYCAREAYDSFDYWGQGTLVTVSS
VL: DIQMTQSPSSLSASVGDRVTITCRASQSISSYLNWYQQKPGKAPKLLIYEASTLETGVPSRFSGSGSGTDFTLTISSLQPEDFATYYCQQANSFPFTFGPGTKVDIKR
notes: scFv
B18: Polypeptide No. 17 (scFv, V domains shown)
VH: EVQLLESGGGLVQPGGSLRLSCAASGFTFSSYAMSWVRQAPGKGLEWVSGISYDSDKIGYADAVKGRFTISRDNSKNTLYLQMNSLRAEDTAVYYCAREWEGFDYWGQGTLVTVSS
VL: B9 VL with Q24R, D28G, D30S, Y32N, D50E, A51S, N53T, T94A, L104V
notes: scFv
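For result in this document: scFvs from periplasmic extracts captured on biosensors via anti-V5 antibody, exposed to recombinant huCD33 variants for 2 min, 5 min dissociation, scored as binding, no binding or ambiguous.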

T1 sequence (P20138 18-259 R69G): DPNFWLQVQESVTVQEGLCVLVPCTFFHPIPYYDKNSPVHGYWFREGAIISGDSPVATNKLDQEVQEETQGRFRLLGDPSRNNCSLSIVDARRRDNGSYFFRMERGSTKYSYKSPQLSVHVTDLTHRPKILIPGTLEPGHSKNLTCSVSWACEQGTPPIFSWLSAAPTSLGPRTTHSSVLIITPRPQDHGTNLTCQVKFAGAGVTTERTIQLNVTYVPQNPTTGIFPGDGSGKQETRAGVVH

The first assay addresses T1, huCD33-G69-Fc recombinant protein (human, UniProt P20138 18-259).
T1 construct: extracellular domain; also called CD33 R69G
In words: BLI. A general note: BLI is a label-free optical method that tracks binding on a fibre tip over time.
Procedure: Discovered scFvs were analyzed for binding to huCD33-R69-His or huCD33-G69-Fc recombinant proteins (for anti-CD33 scFvs; for CLL-1 scFvs, huCLL1-K244-Avi-Tev-His or huCLL1-Q244-Avi-Tev-His were used; for FLT3, huFLT3-T227-His or huFLT3-M227-Fc were used) using BLI on a ForteBio Octet HTX instrument. Streptavidin-coated biosensors were loaded with biotinylated anti-V5 tag monoclonal antibody for 5 min and were then quenched and blocked with 20 μM amine-PEG2-Biotin for 5 min. scFvs were captured on biosensors from scFv clone periplasmic extracts. huCD33 (or huCLL-1, or huFLT3) proteins were then associated with the captured scFvs for 2 minutes, followed by dissociation with buffer (1×HBST [10 mM HEPES pH 7.4, 150 mM NaCl, 0.05% Tween-20], 1 g/L BSA) for 5 minutes. […] Data was fitted with 1:1 Langmuir equation and off-rate values were reported.
B1: the binding result is “no binding”.

Turning to B2, the binding result was “no binding”.

Regarding B3, the binding result is listed as “no binding”.

As to B4, the binding result is “no binding”.

B5: the binding result was “no binding”.

As to B6, the binding result is given as “no binding”.

B7: the binding result is recorded as “no binding”.

Consider B8, for which the binding result is given as “no binding”.

As to B9, the binding result was “no binding”.

Regarding B10, the binding result is “no binding”.

On to B11, for which the binding result was “no binding”.

Regarding B12, the binding result is reported as “no binding”.

For B13, the binding result is recorded as “no binding”.

As for B14, the binding result was “no binding”.

In the case of B15, the binding result was “no binding”.

With B16, the binding result was “no binding”.

As to B17, the binding result is recorded as “no binding”.

Take B18: the binding result is given as “no binding”.

The target of another assay is T2, huCD33-R69 stably expressed on Jurkat cells (human, UniProt P20138 18-364).
T2 construct: whole, on cells; >200,000 receptors per cell; also called CD33 WT; CD33^ARG69
T2 sequence (P20138 18-364): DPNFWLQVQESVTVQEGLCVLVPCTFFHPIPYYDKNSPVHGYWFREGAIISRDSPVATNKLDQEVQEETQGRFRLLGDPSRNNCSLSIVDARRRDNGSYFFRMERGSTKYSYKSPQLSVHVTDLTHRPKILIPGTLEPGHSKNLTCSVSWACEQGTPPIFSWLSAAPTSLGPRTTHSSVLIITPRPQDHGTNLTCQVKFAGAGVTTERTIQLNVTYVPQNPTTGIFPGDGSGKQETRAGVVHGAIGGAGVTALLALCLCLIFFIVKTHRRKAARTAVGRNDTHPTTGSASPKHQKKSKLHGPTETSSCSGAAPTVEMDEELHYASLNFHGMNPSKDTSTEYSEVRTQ
The assay can be described thus: FACS on cells.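 Also: fixed Jurkat cells bearing either CD33 variant, barcoded by dye, exposed to myc-tagged scFv periplasmic extracts, detected with anti-myc PE antibody and read by flow cytometry.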
Turning to B1, the “geometric mean MFI fold change over Jurkat parental” value (“geometric mean MFI fold change” below) fell in the range of 2 to 10 fold.

With B2, the “geometric mean MFI fold change” value was in the range of 2 to 10 fold.

B3: the “geometric mean MFI fold change” value is over 30 fold.

For the molecule B4, the “geometric mean MFI fold change” value was in the range of 2 to 10 fold.

Regarding B5, the “geometric mean MFI fold change” value was in the range of 10 to 30 fold.

On to B6, for which the “geometric mean MFI fold change” value is 2 to 10 fold.

Regarding B7, the “geometric mean MFI fold change” value fell in the range of 10 to 30 fold.

For the molecule B8, the “geometric mean MFI fold change” value is over 30 fold.

For B9, the “geometric mean MFI fold change” value was in the range of 2 to 10 fold.

In the case of B10, the “geometric mean MFI fold change” value is 2 to 10 fold.

Consider B11, for which the “geometric mean MFI fold change” value is 2 to 10 fold.

For B12, the “geometric mean MFI fold change” value was over 30 fold.

Turning to B13, the “geometric mean MFI fold change” value was in the range of 2 to 10 fold.

As to B14, the “geometric mean MFI fold change” value is 2 to 10 fold.

B15: the “geometric mean MFI fold change” value is 10 to 30 fold.

With B16, the “geometric mean MFI fold change” value lay within 2 to 10 fold.

As to B17, the “geometric mean MFI fold change” value is over 30 fold.

On to B18, for which the “geometric mean MFI fold change” value lay within 2 to 10 fold.

For the next assay, the target named is T3, huCD33-G69 stably expressed on Jurkat cells (human, UniProt P20138 18-364).
T3 construct: whole, on cells; >200,000 receptors per cell; also called CD33 Mutant; CD33 R69G
T3 sequence (P20138 18-364 R69G): as the sequence (P20138 18-364) above, with R52G counted along it
The assay can be described thus: FACS on cells.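 Also: fixed Jurkat cells bearing either CD33 variant, barcoded by dye, exposed to myc-tagged scFv periplasmic extracts, detected with anti-myc PE antibody and read by flow cytometry.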
For B1, the “geometric mean MFI fold change” value is under 2 fold.

In the case of B2, the “geometric mean MFI fold change” value was under 2 fold.

B3: the “geometric mean MFI fold change” value is under 2 fold.

With B4, the “geometric mean MFI fold change” value was under 2 fold.

B5: the “geometric mean MFI fold change” value was under 2 fold.

Turning to B6, the “geometric mean MFI fold change” value is under 2 fold.

Take B7: the “geometric mean MFI fold change” value is under 2 fold.

Take B8: the “geometric mean MFI fold change” value is under 2 fold.

Turning to B9, the “geometric mean MFI fold change” value was under 2 fold.

As to B10, the “geometric mean MFI fold change” value was under 2 fold.

B11: the “geometric mean MFI fold change” value was under 2 fold.

Take B12: the “geometric mean MFI fold change” value is under 2 fold.

Consider B13, for which the “geometric mean MFI fold change” value was under 2 fold.

As to B14, the “geometric mean MFI fold change” value was under 2 fold.

In the case of B15, the “geometric mean MFI fold change” value was under 2 fold.

B16: the “geometric mean MFI fold change” value is under 2 fold.

On to B17, for which the “geometric mean MFI fold change” value was under 2 fold.

Regarding B18, the “geometric mean MFI fold change” value was under 2 fold.
